Measurements as given in PMC9012456 (Science Advances, 2022).

B5: KaiC T432V mutant (KaiC-SV) (natural protein)
chain: MTSAEMTSPNNNSEHQAIAKMRTMIEGFDDISHGGLPIGRSTLVSGTSGTGKTLFSIQFLYNGIIEFDEPGVFVTFEETPQDIIKNARSFGWDLAKLVDEGKLFILDASPDPEGQEVVGGFDLSALIERINYAIQKYRARRVSIDSVTSVFQQYDASSVVRRELFRLVARLKQIGATTVMTTERIEEYGPIARYGVEEFVSDNVVILRNVLEGERRRRTLEILKLRGTSHMKGEYPFTITDHGINIFPLGAMRLTQRSSNVRVSSGVVRLDEMCGGGFFKDSIILATGATGTGKTLLVSRFVENACANKERAILFAYEESRAQLLRNAYSWGMDFEEMERQNLLKIVCAYPESAGLEDHLQIIKSEINDFKPARIAIDSLSALARGVSNNAFRQFVIGVTGYAKQEEITGLFTNTSDQFMGAHSITDSHISVITDTIILLQYVEIRGEMSRAINVFKMRGSWHDKAIREFMISDKGPDIKDSFRNFERIISGSPTRITVDEKSELSRIVRGVQEKGPES

Key:
[1] = target: B5; assay: SEC-MALS
crystal structure = target: the molecule itself; assay: crystal structure

B1: KaiA (natural protein)
chain: MLSQIAICIWVESTAILQDCQRALSADRYQLQVCESGEMLLEYAQTHRDQIDCLILVAANPSFRAVVQQLCFEGVVVPAIVVGDRDSEDPDEPAKEQLYHSAELHLGIHQLEQLPYQVDAALAEFLRLAPVETMADHIMLMGANHDPELSSQQRDLAQRLQERLGYLGVYYKRDPDRFLRNLPAYESQKLHQAMQTSYREIVLSYFSPNSNLNQSIDNFVNMAFFADVPVTKVVEIHMELMDEFAKKLRVEGRSEDILLDYRLTLIDVIAHLCEMYRRSIPRET
binding result [1]: binds

B2: KaiB (natural protein)
chain: MSPRKTYILKLYVAGNTPNSVRALKTLKNILEVEFQGVYALKVIDVLKNPQLAEEDKILATPTLAKVLPLPVRRIIGDLSDREKVLIGLDLLYGELQDSDDF
binding result [1]: binds

B3: KaiC-pSpT (KaiC fully phosphorylated at S431 and T432) (natural protein)
chain: MTSAEMTSPNNNSEHQAIAKMRTMIEGFDDISHGGLPIGRSTLVSGTSGTGKTLFSIQFLYNGIIEFDEPGVFVTFEETPQDIIKNARSFGWDLAKLVDEGKLFILDASPDPEGQEVVGGFDLSALIERINYAIQKYRARRVSIDSVTSVFQQYDASSVVRRELFRLVARLKQIGATTVMTTERIEEYGPIARYGVEEFVSDNVVILRNVLEGERRRRTLEILKLRGTSHMKGEYPFTITDHGINIFPLGAMRLTQRSSNVRVSSGVVRLDEMCGGGFFKDSIILATGATGTGKTLLVSRFVENACANKERAILFAYEESRAQLLRNAYSWGMDFEEMERQNLLKIVCAYPESAGLEDHLQIIKSEINDFKPARIAIDSLSALARGVSNNAFRQFVIGVTGYAKQEEITGLFTNTSDQFMGAHSITDSHISTITDTIILLQYVEIRGEMSRAINVFKMRGSWHDKAIREFMISDKGPDIKDSFRNFERIISGSPTRITVDEKSELSRIVRGVQEKGPES
modifications: phosphorylated S431 (pS431), phosphorylated T432 (pT432)
stoichiometry N (crystal structure): 6

B4: KaiC-pST (KaiC phosphorylated at S431 only) (natural protein)
chain: MTSAEMTSPNNNSEHQAIAKMRTMIEGFDDISHGGLPIGRSTLVSGTSGTGKTLFSIQFLYNGIIEFDEPGVFVTFEETPQDIIKNARSFGWDLAKLVDEGKLFILDASPDPEGQEVVGGFDLSALIERINYAIQKYRARRVSIDSVTSVFQQYDASSVVRRELFRLVARLKQIGATTVMTTERIEEYGPIARYGVEEFVSDNVVILRNVLEGERRRRTLEILKLRGTSHMKGEYPFTITDHGINIFPLGAMRLTQRSSNVRVSSGVVRLDEMCGGGFFKDSIILATGATGTGKTLLVSRFVENACANKERAILFAYEESRAQLLRNAYSWGMDFEEMERQNLLKIVCAYPESAGLEDHLQIIKSEINDFKPARIAIDSLSALARGVSNNAFRQFVIGVTGYAKQEEITGLFTNTSDQFMGAHSITDSHISTITDTIILLQYVEIRGEMSRAINVFKMRGSWHDKAIREFMISDKGPDIKDSFRNFERIISGSPTRITVDEKSELSRIVRGVQEKGPES
modifications: phosphorylated S431 (pS431)
stoichiometry N (crystal structure): 6

B5
binding result (crystal structure): binds
